These are literature values, as cited in PMC9691366, “Modulating the pharmacokinetic profile of Actinium-225-labeled macropa-derived radioconjugates by dual targeting of PSMA and albumin” (Theranostics, 2022).

In the data set the test system is tumor. As to conditions: in vivo, 24 h; cited from earlier work.

As for [^177Lu]Lu-PSMA-617, the tumor uptake is reported as 11.20 ± 4.17 %ID/g.
